# Assay results from patent US10393755B2, “Compositions and methods for treating eye infections and disease” (UNIVERSITY OF VIRGINIA PATENT FOUNDATION, priority 2014, dated 2019).
# How the values were obtained:
# HCE-T cells = assay: Ca2+ imaging (Fluo-4 AM); type: cell-based, human
# Method: SV40-immortalized HCE-T cells (Riken Cell Bank, Japan) were grown in keratinocyte-SFM media (KSFM, Life Technologies, Rockville, Md.) containing bovine pituitary extract (BPE, 50 mg/ml) and epidermal growth factor (EGF, 5 ng/ml). Cell passages 4-6 were used for Ca2+ imaging, scratch and uptake assays in 35 mm coverslip-bottomed dishes. To optimize responsiveness upon stimuli, cells were starved with EGF and BPE free medium for 24 h before experimentation.
# HCE-Ts were rinsed twice with Ca2+ and Mg2+ free phosphate buffer saline (PBS) and incubated at 37° C. for 20 min fresh KSFM medium containing […] calcium probe Fluo-4 AM (Invitrogen Life technologies, NY). […] The cells were illuminated at 488 nm, and their emission was monitored every 3.15 s at 510 nm using Zeiss LSM 510 Meta confocal microscope system. The field of interest contained 24 to 45 cells, and the fluorescent intensity change was calculated for each region with image-analysis software. Ca2+ dynamics were evaluated using the changes in fluorescence intensity of Fluo-4 AM. The data are presented as percentage change in fluorescence intensity at each time point (Ft) to the first time point (F0) reading: (Ft−F0)/F0×100%.
# HCE-T monolayers = assay: In vitro scratch closure assay; type: cell-based, human; settings: 10 nM, 24 h, compared to plain medium without growth factors
# Method: For a scratch assay, confluent HCE-T monolayers were scraped in a straight line to create a scratch wound with a p200 pipet tip. Cells were rinsed with KSFM medium without BPE or EGF to remove debris and then incubated with fresh KSFM medium containing BPE (50 mg/ml) and EGF (5 ng/ml), LSI, or medium without growth factors (No treat). Phase contrast images of the wound at the beginning and after 24 h treatment were captured using Zeiss LSM 510 Meta confocal microscope system.
# HCE-Ts = assay: Exogenous cell uptake assay (rhodamine labeled); type: cell-based, human; settings: NHS-rhodamine labeled
# Method: SI and LSI nanoparticles were conjugated with NHS-rhodamine (Thermo Fisher Scientific Inc, Rockford, Ill.) via covalent modification of the amino terminus. Conjugation was performed in 100 mM borate buffer (pH 8.0) for 2 h (LSI) or overnight (SI) at 4° C. followed by desalting on a PD10 column (GE Healthcare, Piscataway, N.J.) to remove free dye. Briefly, after the cells were rinsed with fresh medium without BPE and EGF, […] rhodamine labeled proteins were added into the dish. After incubation at 37° C. for different time points, the cells were rinsed and images were acquired using Zeiss LSM 510 Meta confocal microscope system.
# [1] = system: NOD mice corneal epithelium; assay: Murine corneal abrasion and recovery study; type: in vivo, mouse
# Method: Briefly, 12 week female NOD mice were anesthetized with an i.p. injection of xylaxine/ketamine (60-70 mg+5 mg/kg) and placed on a heating pad. After cleaning the ocular surface with eye wash (OCuSOFT, Inc., TX), the corneal epithelium of the right eye was removed down to the basement membrane using an algerbrush II (The Alger Company, Inc., TX); the left eye was left intact as a contra lateral control. Mice were allowed to heal for 24 h with 2 doses ([…]) of KSFM medium containing BPE (50 mg/ml) and EGF (5 ng/ml), […] LSI, […] SI, or no treatment at 12 h intervals. After staining the ocular surface with […] 0.6 mg/ml fluorescein (Akorn, Ill.), images of the abrasion wound were captured using a Moticam 2300 camera after 12 h and 24 h.
# [2] = Phase behavior and nanoparticle formation (optical density, DLS, TEM); type: physicochemical; set-up: Phase transition temperature / Tt1, critical micelle temperature (CMT): dose or concentration left out as unconfirmed
# Method: The phase diagram for LSI fusion protein was characterized by optical density change at 350 nm as a function of solution temperature using a DU800 UV-Vis Spectrophotometer (Beckman Coulter, Brea, Calif.). Tt was defined at the point of the maximum first derivative. Self-assembly of nanoparticles was measured using dynamic light scattering (DLS) using a DynaPro-LSR Plate Reader (Wyatt Technology, Santa Barbara, Calif.). Light scattering data were collected at regular temperature intervals (1° C.) as solutions were heated from 5 to 50° C. The results were analyzed using a Rayleigh sphere model and fitted into a cumulant algorithm based on the sum-of-squares value.
# The TEM imaging was carried out on a FEI Tecnai 12 TWIN microscope (Hillsboro, Oreg.) at 100 kV. Briefly, a 100 uM solution (5 uL) was initially deposited on a copper grid with carbon film (CF400-Cu, Election Microscopy Sciences, Hatfield, Pa.). After removing the excess amount of solution with filter paper, the samples were negatively stained with 2% uranyl acetate, followed by removing excess uranyl acetate after 30 s. b The samples were then dried under room temperature for at least 3 h before use in imaging.
molecule,measurement,setting,value
"LSI: lacritin fused to diblock ELP (VPGSG)48(VPGIG)48; forms thermoresponsive nanoparticles (protein, ELP lacritin fusion construct; (129)..(133) the sequence VPGSG is directly repeated 48 times; (134)..(138) The sequence VPGIG is directly repeated 48 times, forms thermoresponsive nanoparticles) GEDASSDSTGADPAQEAGTSKPNEEISGPAEPASPPETTTTAQETSAAAVQGTAKVTSSRQELNPLKSIVEKSILLTEQALAKAGKGMHGGVPGGKQFIENGSEFAQKLLKKFSLLKPWAGLVPRGSGVPGSGVPGIGY",Maximum fluorescence intensity change compared to baseline (F0),HCE-T cells; Fluo-4 AM loaded HCE-T cells,4.399+/−1.043 fold
same,Ca2+ influx peak duration on second treatment,"HCE-T cells; same concentration, second time, from 40",70 s
same,Scratch wound healing,HCE-T monolayers,significantly accelerated scratch wound healing
same,Cytosolic fluorescence (cell uptake),HCE-Ts,significantly higher cytosolic fluorescence than SI nanoparticles
same,Time to significant cell entry,HCE-Ts,10 m
same,Percentage of initial wound area (PctArea),"[1]; 5 ml of 100 mM topical at 0 and 12 h, 12 and 24 hours, compared to SI, EGF+BPE, no treatment",significantly decreased
same,"Abrasion wound healing, LSI compared with LS96","[1]; 12 h, eight mice per group",significantly (p<0.05) faster
same,Corneal epithelium histology after 24 h,[1]; hematoxylin and eosin,complete recovery
same,"Tt1, critical micelle temperature (CMT)",[2],32.3 °C
same,Hydrodynamic radius compared with LS96,"[2]; DLS, 37° C.",much larger hydrodynamic radius than LS96
same,Nanoparticle size by DLS above Tt,[2]; above Tt,130-140 nm
same,Nanoparticle size by DLS below Tt,[2]; below Tt,30-40 nm
same,Average diameter by TEM,[2]; dried from room temperature,67.1+/−11.5 nm
same,Phase transition temperature,[2]; optical density,18.4 °C
